# Experimental data as given in the RNAGym collection of RNA variant scans (doi:10.7554/elife.80360).
# B1: Twister Ribozyme (parent)
# chain: AACACUGCCAAUGCCGGUCCCAAGCCCGGAUAAAAGUGGAGGGGGCGG
# Variants of: B1
# Assay: self-cleavage, relative activity (ratio to wild type); higher = more cleavage; co-transcriptional
row,Variant,self-cleavage
1,C19A G45A,0.196
2,C19A G45U,0.257
3,C19A G47A,0.139
4,C19A G47C,0.155
5,C19A G48U,0.206
6,C19A U31G,0.334
7,C19A U37C,0.0949
8,C19A U37G,0.0778
9,C19G A22G,0.0844
10,C19G A23C,0.0786
11,C19G A23G,0.0717
12,C19G A30C,0.0929
13,C19G A32G,0.267
14,C19G A33C,0.0963
15,C19G A34G,0.108
16,C19G A34U,0.12
17,C19G A35G,0.0996
18,C19G A40G,0.135
19,C19G A40U,0.0582
20,C19G C20A,0.0695
21,C19G C20U,0.117

row,Variant,self-cleavage
1,C19G C21A,0.0839
2,C19G C21U,0.101
3,C19G C25G,0.124
4,C19G C25U,0.151
5,C19G C26A,0.0816
6,C19G C26G,0.0807
7,C19G C27A,0.0851
8,C19G C27G,0.0733
9,C19G C46A,0.18
10,C19G G24A,0.0928
11,C19G G24C,0.125
12,C19G G28C,0.108
13,C19G G29C,0.0886
14,C19G G29U,0.29
15,C19G G36A,0.101
16,C19G G36C,0.118
17,C19G G38A,0.132
18,C19G G39A,0.104
19,C19G G39C,0.162
20,C19G G39U,0.118
21,C19G G41A,0.113

row,Variant,self-cleavage
1,C19G G41C,0.136
2,C19G G41U,0.104
3,C19G G42A,0.0847
4,C19G G43U,0.685
5,C19G G44C,0.27
6,C19G G44U,0.29
7,C19G G45A,0.321
8,C19G G47A,0.105
9,C19G G47C,0.193
10,C19G G48C,0.23
11,C19G G48U,0.218
12,C19G U31C,0.492
13,C19G U31G,0.467
14,C19G U37A,0.0632
15,C19G U37C,0.138
16,C19U A22C,1.15
17,C19U A22U,0.601
18,C19U A23C,0.117
19,C19U A30G,0.918
20,C19U A32U,1.02
21,C19U A33G,0.889

row,Variant,self-cleavage
1,C19U A34U,0.56
2,C19U A35G,0.683
3,C19U A35U,0.972
4,C19U A40G,0.108
5,C19U C21A,0.0697
6,C19U C21G,0.107
7,C19U C25G,0.176
8,C19U C25U,0.623
9,C19U C26A,0.116
10,C19U C27A,0.176
11,C19U C27G,0.0975
12,C19U G24A,0.0904
13,C19U G24U,0.0889
14,C19U G28C,0.908
15,C19U G29A,0.806
16,C19U G36C,0.129
17,C19U G38A,0.855
18,C19U G38C,0.782
19,C19U G38U,0.36
20,C19U G39A,0.28
